Assay results as given in patent US20230414780A1 (VECT HORUS, published 2023).
Residue numbers refer to the chain shown, from its start.

Legend:
[1] = molecular target: T1, murine TfR expressed by murine neuroblastoma Neuro-2a cells (mouse, UniProt Q62351 1-763); test: competition with C5-Alexa680 (100 nM) on living Neuro-2a cells, 3 hrs at 37 C, flow cytometry; Ki/app, mean ± SD
T1 construct: whole, on cells; also called mTfR (N2a cells)
Method: The binding of VHH-Oligo and VHH-hFc-Oligo conjugates to mTfR was evaluated using a competition assay on living cells expressing the receptor of interest, namely murine neuroblastoma Neuro-2a cells (N2a). N2a cells were grown in Dulbecco's Modified Eagle Medium (DMEM) GlutaMAX supplemented with 10% v/v FBS in 5% CO₂ at 37° C. Cells were seeded two days before experiments in 96-well plates at a density of 50.000 cells/well. […] Resuspended cells were transferred in a 96-deepwell plate (V-bottom) containing 1% fetal bovine serum (FBS)/0.02% sodium azide in phosphate-buffered saline (PBS) and then centrifuged for 5 min at 2000 rpm at 4° C. After removing the supernatant, 5 mM EDTA in D-PBS and 4% paraformaldehyde (PFA) (v/v 1:1) were added into wells to fix cells for 15 min at room temperature. PFA was removed by centrifugation (5 min, 3000 rpm, 4° C.) and cells were resuspended with 5 mM EDTA in D-PBS. Then the cellular A680-associated fluorescence signal was quantified using an Attune™ NxT flow cytometer (Thermo Fisher Scientific) equipped with Attune™ NxT v3.1.2. Experimental data (experimental triplicates) were fitted with GraphPad Prism® software using a nonlinear fit to determine the apparent Ki inhibition constants.

[2] = molecular target: T1, murine TfR expressed by murine …; test: cell-based or functional assay
[3] = molecular target: T2, human transferrin receptor (hTfR) fused to EGFP, on CHO cells (human, UniProt P02786 1-760); test: flow cytometry on CHO-hTfR-EGFP cells, 1 hr at 4 C, anti-6His + Alexa647 anti-mouse; nonlinear fit
T2 construct: whole, on cells; also called human TfR; CHO-hTfR-EGFP; not shown: EGFP from pEGFP-C1 vector, fused to the N-terminal (intracellular) end of hTfR
T2 sequence (P02786 whole entry, the tested form may be a part): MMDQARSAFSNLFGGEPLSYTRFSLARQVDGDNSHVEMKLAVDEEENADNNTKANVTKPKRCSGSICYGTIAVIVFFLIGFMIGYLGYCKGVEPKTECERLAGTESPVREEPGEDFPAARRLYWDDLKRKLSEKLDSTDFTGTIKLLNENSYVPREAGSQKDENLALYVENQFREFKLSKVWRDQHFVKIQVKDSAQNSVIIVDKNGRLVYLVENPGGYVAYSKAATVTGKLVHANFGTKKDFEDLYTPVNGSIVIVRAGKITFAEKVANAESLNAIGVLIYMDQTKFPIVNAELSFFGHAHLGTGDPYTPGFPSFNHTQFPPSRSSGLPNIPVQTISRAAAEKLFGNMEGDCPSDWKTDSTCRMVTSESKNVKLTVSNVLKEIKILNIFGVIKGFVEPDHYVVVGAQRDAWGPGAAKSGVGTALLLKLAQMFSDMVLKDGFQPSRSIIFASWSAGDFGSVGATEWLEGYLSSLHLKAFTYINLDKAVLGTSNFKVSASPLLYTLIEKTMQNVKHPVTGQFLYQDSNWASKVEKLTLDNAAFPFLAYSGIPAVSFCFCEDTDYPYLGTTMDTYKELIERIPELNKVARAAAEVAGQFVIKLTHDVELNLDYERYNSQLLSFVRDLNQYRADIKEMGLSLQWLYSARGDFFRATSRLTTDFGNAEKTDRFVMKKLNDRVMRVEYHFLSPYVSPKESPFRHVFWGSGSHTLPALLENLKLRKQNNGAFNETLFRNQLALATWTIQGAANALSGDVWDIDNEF
Method: CHO-hTfR-EGFP cells were incubated 1 hr at 4° C. with various concentrations of the indicated compounds. Detection of VHHs was performed using a primary mouse anti-6His (1/1000) and an Alexa647-conjugated anti-mouse secondary antibody (1/400). Measurements of cell-surface signal associated with VHH were performed using flow cytometry. The results are expressed as the ratio of Alexa647-associated fluorescence intensity of test compounds to that of background fluorescence.

[4] = molecular target: T3, mouse transferrin receptor (mTfR) fused to EGFP, on CHO cells (mouse, UniProt Q62351 1-763); test: flow cytometry on CHO-mTfR-EGFP cells, 1 hr at 4 C, anti-6His + Alexa647 anti-mouse
T3 construct: whole, on cells; also called mouse TfR; CHO-mTfR-EGFP; not shown: EGFP
T3 sequence (Q62351 whole entry, the tested form may be a part): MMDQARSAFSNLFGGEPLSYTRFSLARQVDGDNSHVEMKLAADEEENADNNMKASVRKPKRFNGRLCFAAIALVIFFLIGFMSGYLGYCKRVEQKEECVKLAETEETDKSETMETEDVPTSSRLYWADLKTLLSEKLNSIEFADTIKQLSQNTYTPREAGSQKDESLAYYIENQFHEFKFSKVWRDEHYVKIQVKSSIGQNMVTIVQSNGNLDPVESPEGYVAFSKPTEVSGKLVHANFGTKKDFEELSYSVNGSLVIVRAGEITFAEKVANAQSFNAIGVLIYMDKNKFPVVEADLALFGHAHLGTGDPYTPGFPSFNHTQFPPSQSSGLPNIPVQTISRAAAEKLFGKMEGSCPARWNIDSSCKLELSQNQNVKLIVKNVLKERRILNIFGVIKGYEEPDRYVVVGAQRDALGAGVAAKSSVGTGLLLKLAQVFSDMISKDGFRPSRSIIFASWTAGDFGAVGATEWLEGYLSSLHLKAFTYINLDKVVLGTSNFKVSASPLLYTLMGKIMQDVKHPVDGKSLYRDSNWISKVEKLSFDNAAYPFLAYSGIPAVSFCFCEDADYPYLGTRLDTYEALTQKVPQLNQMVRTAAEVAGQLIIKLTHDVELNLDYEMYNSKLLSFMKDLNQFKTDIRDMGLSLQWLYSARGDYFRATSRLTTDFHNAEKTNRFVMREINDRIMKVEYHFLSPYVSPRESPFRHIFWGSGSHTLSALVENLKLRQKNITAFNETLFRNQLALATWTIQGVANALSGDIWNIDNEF
Method: (§1) (A) CHO-hTfR-EGFP and CHO-mTfR-EGFP cells were incubated 1 hr at 4° C. with various concentrations of VHHs, detected with a mouse anti-6His (1/1000) and an Alexa647-conjugated anti-mouse secondary antibody (1/400). Measurements were performed using flow cytometry. The ratio of fluorescence intensity for each point was normalized with the corresponding EGFP signal (receptor expression) and gave rise to the arbitrary unit. Data are presented as mean±SEM of 3 independent experiments. (B) Characteristics of VHHs: Molecular Weight (Da); Theoretical pI; Apparent Kd on human TfR (nM); Apparent Kd on mouse TfR (nM). Data are presented as mean±SEM of 3 independent experiments. NB: no binding, LB: low binding.
(§2) All experiments were performed in 96 well plates using 2×10⁵ cells/well, at 4° C. with shaking. CHO cell lines stably expressing the hTfR or the mTfR fused to EGFP or CHO WT cells were saturated with PBS/BSA 2% solution during 30 min to avoid non-specific binding, followed by incubation with purified VHHs at concentrations ranging from 50 μM to 5 μM for 1 hr. After one wash in PBS/BSA 2%, cells were incubated for 1 hr with an anti-6His tag antibody (mouse), washed twice with PBS/BSA 2%, and incubated for 45 min with an Alexa647-conjugated anti-mouse secondary antibody. […] Fluorescence levels were assessed using an Attune NxT Flow Cytometer (Thermo Fisher Scientific).

[5] = molecular target: T2, human transferrin receptor (hTfR) fused …; test: apparent Kd, flow cytometry, CHO cells
Method: All experiments were performed in 96 well plates using 2×10⁵ cells/well, at 4° C. with shaking. CHO cell lines stably expressing the hTfR or the mTfR fused to EGFP or CHO WT cells were saturated with PBS/BSA 2% solution during 30 min to avoid non-specific binding, followed by incubation with purified VHHs at concentrations ranging from 50 μM to 5 μM for 1 hr. After one wash in PBS/BSA 2%, cells were incubated for 1 hr with an anti-6His tag antibody (mouse), washed twice with PBS/BSA 2%, and incubated for 45 min with an Alexa647-conjugated anti-mouse secondary antibody. After two last washes in PBS/BSA 2%, cells were fixed by incubation for 15 min with PBS/PFA 2%, washed once with PBS and finally resuspended in PBS and stored at 4° C. Fluorescence levels were assessed using an Attune NxT Flow Cytometer (Thermo Fisher Scientific). […] No labeling of the CHO WT control cells was detected with all the tested VHHs (not shown). The VHH K_{d app} were calculated using GraphPad Prism software (FIG. 11-B; 12-B).

[6] = molecular target: T2, human transferrin receptor (hTfR) fused …; test: flow cytometry on CHO-hTfR-EGFP cells, 1 hr at 4 C, anti-6His + Alexa647 anti-mouse; apparent Kd, mean ± SEM of 3 experiments
Method: as §1, §2

[7] = molecular target: T3, mouse transferrin receptor (mTfR) fused …; test: flow cytometry on CHO-mTfR-EGFP cells, 1 hr at 4 C, anti-6His + Alexa647 anti-mouse; apparent Kd, mean ± SEM of 3 experiments
Method: as §1, §2

[8] = molecular target: T3, mouse transferrin receptor (mTfR) fused …; test: apparent Kd, cell-based assay
[9] = molecular target: T3, mouse transferrin receptor (mTfR) fused …; test: flow cytometry on CHO-mTfR-EGFP cells, 1 hr at 4 C, Alexa647 anti-mouse; apparent Kd, mean ± SEM of 3 experiments
Method: as §1, with “FIGS. 13A-13B: Apparent Kd determination of 13C3-HC-VHH fusions on hTfR- and mTfR-expressing CHO cell lines. (A)” for “(A)”, “13C3 fusions and” for “VHHs,”, “with” for “with a mouse anti-6His (1/1000) and”, “anti-mouse” for “anti-mouse secondary”, “13C3 fusions:” for “VHHs:”, “(Da);” for “(Da); Theoretical pI;”
All experiments were performed in 96 well plates using 2×10⁵ cells/well, at 4° C. with shaking. CHO cell lines stably expressing the hTfR or the mTfR fused to EGFP or CHO WT cells were saturated with PBS/BSA 2% solution during 30 min to avoid non-specific binding, followed by incubation with purified VHHs at concentrations ranging from 50 μM to 5 μM for 1 hr. After one wash in PBS/BSA 2%, cells were incubated for 1 hr with an anti-6His tag antibody (mouse), washed twice with PBS/BSA 2%, and incubated for 45 min with an Alexa647-conjugated anti-mouse secondary antibody. After two last washes in PBS/BSA 2%, cells were fixed by incubation for 15 min with PBS/PFA 2%, washed once with PBS and finally resuspended in PBS and stored at 4° C. Fluorescence levels were assessed using an Attune NxT Flow Cytometer (Thermo Fisher Scientific).

[10] = molecular target: T3, mouse transferrin receptor (mTfR) fused …; test: flow cytometry, CHO cells
[11] = molecular target: T3, mouse transferrin receptor (mTfR) fused …; test: cell-based flow cytometry assay on mTfR-expressing cells (as in Example XI); Kd/app
[12] = molecular target: T3, mouse transferrin receptor (mTfR) fused …; test: cell-based flow cytometry assay on mTfR-expressing cells (as in Example XI)

T1 sequence (Q62351 whole entry): as the sequence (Q62351 whole entry, the tested form may be a part) above

B1: C5-siSOD1m-5'VP (VHH, not shown: small tags and cut ends)
VHH: EVQLVESGGGVVQPGGSLKLSCVASGTDFSINFIRWYRQAPGKQREFVAGFTATGNTNYADSMKGRFTISRDNTKNAVYLQIDSLKPEDTAVYYCYMLDKWGQGTQVTVSS
modifications: siSOD1m-5'VP siRNA duplex linked by a stable linker (azide/alkyne click) to the VHH
notes: also called VHH-siSOD1m-5'VP wherein VHH is C5
[1]
  Ki: 164 nM
[2]
  IC50 of mSOD1 mRNA downregulation, free uptake on Neuro-2a cells: 7.4 nM

B2: VHH A-NODAGA bioconjugate (VHH, not shown: small tags and cut ends)
VHH: B1 VHH
modifications: NODAGA-BCN clicked to an azido linker on the Gln of the C-terminal Q-tag
[3]
  Kd: 7.72 nM

B3: VHH A7 (C5^V7) (VHH)
VHH: B1 VHH with L98A
[4]
  binding result: binds
[5]
  Kd: 255 nM

B4: VHH A6 (C5^V6) (VHH)
VHH: B1 VHH with M97A
[5]
  Kd: 3 to 4 nM
[6]
  Kd: 3.4 nM
[7]
  Kd: 182 nM

B5: B8 h1-NT(8-13) (VHH)
VHH: EVQLVESGGGVVQPGGSLRLSCAASGEIFSINFMRWYRQAPGKGLEWVAGFTRDGSTNYPDSVKGRFTISRDNAKNTVYLQMNSLRPEDTAVYYCYMLDTWGQGTQVTVSS
[8]
  Kd: 2.8 nM

B6: B8V1-NT(8-13) (VHH)
VHH: B5 VHH with S25D, G44Q, L45R, V63A, M82I, N83D, R86K
[8]
  Kd: 8.3 nM

B7: 13C3-HC-VHH A1 (antibody)
heavy: QVQLQQSGPELVRPGVSVKISCKGSGYTFTDYAMHWVKQSHAKSLEWIGVISTKYGKTNYNQKFKGKATMTVDKSSSTAYMELARLTSEDSAIYYCARGDDGYSWGQGTSVTVSSAKTTPPSVYPLAPGSAAQTNSMVTLGCLVKGYFPEPVTVTWNSGSLSSGVHTFPAVLQSDLYTLSSSVTVPSSTWPSETVTCNVAHPASSTKVDKKIVPRDCGCKPCICTVPEVSSVFIFPPKPKDVLTITLTPKVTCVVVDISKDDPEVQFSWFVDDVEVHTAQTQPREEQFNSTFRSVSELPIMHQDWLNGKEFKCRVNSAAFPAPIEKTISKTKGRPKAPQVYTIPPPKEQMAKDKVSLTCMITDFFPEDITVEWQWNGQPAENYKNTQPIMDTDGSYFVYSKLNVQKSNWEAGNTFTCSVLHEGLHNHHTEKSLSHSPGGGGGMAEVQLVESGGGVVQPGGSLKLSCVASGADFSINFIRWYRQAPGKQREFVAGFTATGNTNYADSMKGRFTISRDNTKNAVYLQIDSLKPEDTAVYYCYMLDKWGQGTQVTVSSAAA
light: DVVMTQTPLSLPVSLGDQASISCRSGQSLVHSNGNTYLHWYLQKPGQSPKLLIYTVSNRFSGVPDRFSGSGSGSDFTLKISRVEAEDLGVYFCSQNTFVPWTFGGGTKLEIKRADAAPTVSIFPPSSEQLTSGGASVVCFLNNFYPKDINVKWKIDGSERQNGVLNSWTDQDSKDSTYSMSSTLTLTKDEYERHNSYTCEATHKTSTSPIVKSFNRNEC
[9]
  Kd: 9.4 nM
[10]
  Bmax, fold lower than 13C3-HC-VHH A: 2 fold

B8: 13C3-HC-C5h16 (antibody)
heavy: QVQLQQSGPELVRPGVSVKISCKGSGYTFTDYAMHWVKQSHAKSLEWIGVISTKYGKTNYNQKFKGKATMTVDKSSSTAYMELARLTSEDSAIYYCARGDDGYSWGQGTSVTVSSAKTTPPSVYPLAPGSAAQTNSMVTLGCLVKGYFPEPVTVTWNSGSLSSGVHTFPAVLQSDLYTLSSSVTVPSSTWPSETVTCNVAHPASSTKVDKKIVPRDCGCKPCICTVPEVSSVFIFPPKPKDVLTITLTPKVTCVVVDISKDDPEVQFSWFVDDVEVHTAQTQPREEQFNSTFRSVSELPIMHQDWLNGKEFKCRVNSAAFPAPIEKTISKTKGRPKAPQVYTIPPPKEQMAKDKVSLTCMITDFFPEDITVEWQWNGQPAENYKNTQPIMDTDGSYFVYSKLNVQKSNWEAGNTFTCSVLHEGLHNHHTEKSLSHSPGGGGGMAEVQLVESGGGLVQPGGSLRLSCAASGTDFSINFIRWYRQAPGKGLEFVAGFTATGNTNYADSVKGRFTISRDNSKNTLYLQMNSLRAEDTAVYYCYMLDKWGQGTLVTVSSAAA
light: B7 light
[11]
  Kd: 19.6 nM
[12]
  Bmax: 381 RFI
[10]
  binding potential, fold lower than 13C3-HC-C5h20: ~3 fold
